Source: patent US20240018502A1

Columns and labels:
[1] = molecular target: plasma purified human complement protein C3 (human) (UniProt P01024); experiment: cell-based or functional assay
[2] = molecular target: human complement protein C3 (human) (UniProt P01024); experiment: cell-based or functional assay
human complement protein C3 (human), sequence (P01024 23-667, chain 1 of 2): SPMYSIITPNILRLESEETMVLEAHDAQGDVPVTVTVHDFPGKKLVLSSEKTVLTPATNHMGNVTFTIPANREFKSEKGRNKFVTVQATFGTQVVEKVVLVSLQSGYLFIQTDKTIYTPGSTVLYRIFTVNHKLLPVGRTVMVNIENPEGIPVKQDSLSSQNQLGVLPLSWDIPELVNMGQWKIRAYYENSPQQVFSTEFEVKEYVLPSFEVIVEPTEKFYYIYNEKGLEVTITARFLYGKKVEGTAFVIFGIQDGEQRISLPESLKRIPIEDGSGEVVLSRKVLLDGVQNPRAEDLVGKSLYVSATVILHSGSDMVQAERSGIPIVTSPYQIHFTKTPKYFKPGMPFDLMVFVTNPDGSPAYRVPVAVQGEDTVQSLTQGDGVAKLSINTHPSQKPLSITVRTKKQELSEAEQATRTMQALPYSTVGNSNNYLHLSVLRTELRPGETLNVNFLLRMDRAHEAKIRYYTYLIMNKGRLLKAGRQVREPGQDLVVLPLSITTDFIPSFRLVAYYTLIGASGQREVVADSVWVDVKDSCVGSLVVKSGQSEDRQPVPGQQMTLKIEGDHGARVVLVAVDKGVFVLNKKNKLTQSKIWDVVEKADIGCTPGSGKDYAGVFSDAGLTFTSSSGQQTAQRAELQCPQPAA
human complement protein C3 (human), sequence (P01024 672-1663, chain 2 of 2): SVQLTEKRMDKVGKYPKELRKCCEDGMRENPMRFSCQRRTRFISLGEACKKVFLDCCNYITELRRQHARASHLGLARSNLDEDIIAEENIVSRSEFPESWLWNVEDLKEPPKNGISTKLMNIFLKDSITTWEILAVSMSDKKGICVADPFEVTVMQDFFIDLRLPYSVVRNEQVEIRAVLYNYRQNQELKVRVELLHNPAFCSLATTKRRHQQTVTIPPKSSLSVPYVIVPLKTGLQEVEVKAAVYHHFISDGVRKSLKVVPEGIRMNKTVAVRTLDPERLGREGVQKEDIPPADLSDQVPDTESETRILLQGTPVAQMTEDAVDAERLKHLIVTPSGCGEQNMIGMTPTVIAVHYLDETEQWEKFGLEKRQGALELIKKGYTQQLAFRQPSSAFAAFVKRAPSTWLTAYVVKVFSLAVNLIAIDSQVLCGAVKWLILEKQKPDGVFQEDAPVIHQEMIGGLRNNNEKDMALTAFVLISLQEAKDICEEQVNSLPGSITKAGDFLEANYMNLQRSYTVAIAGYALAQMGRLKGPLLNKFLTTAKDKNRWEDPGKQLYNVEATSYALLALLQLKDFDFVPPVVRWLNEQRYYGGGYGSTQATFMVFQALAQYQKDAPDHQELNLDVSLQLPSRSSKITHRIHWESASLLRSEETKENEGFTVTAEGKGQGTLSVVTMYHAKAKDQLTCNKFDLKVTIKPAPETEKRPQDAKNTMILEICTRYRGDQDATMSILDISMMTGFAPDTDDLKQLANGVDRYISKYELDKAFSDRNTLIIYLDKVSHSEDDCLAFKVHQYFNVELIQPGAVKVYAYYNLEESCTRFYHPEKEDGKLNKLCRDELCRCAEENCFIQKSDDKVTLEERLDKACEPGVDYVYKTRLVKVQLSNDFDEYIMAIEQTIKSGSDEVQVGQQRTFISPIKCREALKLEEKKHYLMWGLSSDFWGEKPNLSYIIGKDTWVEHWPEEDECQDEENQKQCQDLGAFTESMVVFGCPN

plasma purified human complement protein C3 (human), sequence (P01024 23-667, chain 1 of 2): as the sequence (P01024 23-667, chain 1 of 2) above
plasma purified human complement protein C3 (human), sequence (P01024 672-1663, chain 2 of 2): as the sequence (P01024 672-1663, chain 2 of 2) above

Substance | EC50 of hC3 cleavage [1] [nM] | further results
MTSP-1 H40R/I41H/Y60gL/F97D/F99L/C122S/G151N/Q175M/D217I/K224S (from UniProt Q9Y5Y6 615-855) (enzyme) | 7.41 | 
MTSP-1 H40R/I41H/F97D/F99L/C122S/Q175L/Q192G/D217Q/K224R (from UniProt Q9Y5Y6 615-855) (enzyme) | 14.9 | 
MTSP-1 protease domain Q38Y/I41S/D60bT/F60eR/Y60gW/D96M/F97N/T98G/F99L/C122S/Q175L/Q192D (from UniProt Q9Y5Y6 615-855) (enzyme) |  | EC50 hC3 cleavage [1]: 3.75 nM
Q38Y/I41S/D60bT/F60eR/Y60gW/D96M/F97N/T98G/F99L/C122S/Q175L/Q192D (from UniProt Q9Y5Y6 615-855) (enzyme) |  | EC50 (nM), cleavage of purified hC3 in vitro [2]: 3.75 nM
MTSP-1 H40R/I41H/F97D/F99L/C122S/G151D/Q192G (from UniProt Q9Y5Y6 615-855) (enzyme) | 1530 | 
